Measured values from the supplement of paper PMC9170038.

Test system: MS2 coat protein
Assay: apparent KD of MS2 coat protein; designed switch direction (-1 OFF switch, 1 ON switch): -1; higher = weaker reporter binding
Summary of the method: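 SNAP-549-labelled MS2 coat protein was titrated, doubling from 0.7 or 1.5 nM to 3 µM, over designed RNA switches transcribed on Illumina chips by stalled E. coli RNA polymerase. Runs were done without input, with 200 uM small-molecule ligand, or with an oligonucleotide input. Apparent KD is the per-design median over clusters of curve-fitted normalised fluorescence.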

[1] = input ligand: microRNA oligo, concentration not stated
[2] = Eterna round: R95, input ligand: FMN 200 uM
[3] = Eterna round: R95, input ligand: microRNA oligo, concentration not stated
[4] = Eterna round: R95, input ligand: none

| Sequence | apparent KD of MS2 coat protein (input ligand: FMN 200 uM) | apparent KD of MS2 coat protein [1] | apparent KD of MS2 coat protein (input ligand: none) | apparent KD of MS2 coat protein [2] | apparent KD of MS2 coat protein [3] | apparent KD of MS2 coat protein [4] |
| --- | --- | --- | --- | --- | --- | --- |
| AAUGAUUGACGAGGAUAUUGUGGUGAAACACGACGAGAAGGCGUAUGUCACAUGAGGAUCACCCAUGUGAACUUUGUGGAUAUA [Ex NG1 #70] (Eterna round: R96, puzzle: Exclusion NG 1) | 30.4 nM | 33.3 nM | 38.8 nM | – | – | – |
| AAUGAUUGAUGAGGAUAUUGUGGUGAAACACGACGAGAAGGCAUAUGUCACAUGAGGAUCACCCAUGUGAGCCUUGUGGAUAUA [Ex NG1 #66] (Eterna round: R96, puzzle: Exclusion NG 1) | 115 nM | 45.9 nM | 57.9 nM | – | – | – |
| AAUGGAUGUGUUAGGAUAUCCGGAGGGAAACCUCCGGAGAAGGAACAUGAGGAUCACCCAUGUAUGUAAAAUAC [AK-MS2ROC-r4-Bmoexclusion4-3] (Eterna round: R97, puzzle: Brourd's mod of Exclusion 4) | 449 nM | – | 111 nM | – | – | – |
| AAUUAAACAUAGGAUAUCGAAUUUAUUAUUUAACGAGAAGGAUGAACAUGAGGAUCACCCAUGUGGUAUCAUGG [Mat - Exclusion 6 - JL Mod - D23] (puzzle: Exclusion 6) | – | – | – | 333 nM | 197 nM | 213 nM |
| AAUUAACAAGCAAGAUCCUACAUGAGGAUCACCCAUGUGCUCGUCUUAUAAAGUACUAUCACGAAAGUGAUAGUACA [Mat - Sensor v3 - turn-off var 1 - Eli Mod - D57] (puzzle: Sensor v3, turn-off variant 1) | – | – | – | 217 nM | 357 nM | 197 nM |
| AAUUAACUAGGAUAUACUUGAGGAUCACCCAAGUGGGCUCCACCUGCUUGGCUCCCAGGUAGAAGGAGUAUACA [Tioner] (Eterna round: R97, puzzle: Exclusion 3) | 213 nM | – | 538 nM | – | – | – |
| AAUUAGCAAGCGAGAUCCCACAUGAGGAUCACCCAUGUGCUCGUCUUAUAUAAGGUACUGUACGAGAGUACGGUACC [Mat - Sensor, turn-off var - Eli Mod - D30] (Eterna round: R97, puzzle: Sensor, turn-off variant 1) | 12.1 nM | – | 10.6 nM | – | – | – |
| AAUUAUUUUUGAGGAUAUCGUGGUGAAACACCACGAGAAGGCAAGAUACACAUGAGGAUCACCCAUGUGAGCCUGAUGCUUAUG [Ex NG1 #52] (Eterna round: R96, puzzle: Exclusion NG 1) | – | 13.2 nM | – | – | – | – |
| AAUUCACAUGAGGAUCACCCAUGUCAGGAUAUGGUUUUAUUUUUUUCUUUUCUUGAUUCCAGAAGGGACAGCUA (puzzle: Exclusion 1) | – | – | – | – | 70.8 nM | – |
| ACAAAGCUUUUUGCUCGUCACAUGAGGAUCACCCAUGUGAUAUAAUGAAAAUUAUAUGACAUCCCACUAGGACAUGU [I did it?] (Eterna round: R97, puzzle: Sensor, turn-off variant 1) | 18.5 nM | – | 20.9 nM | – | – | – |
| ACAAGAAUUUUGCUCGUAAAGUAGAAACGCGAGAGCGGGACAUGAGGAUCACCCAUGUAAAGGCAGUUGGUGGAGAU [JR_SV3TOV2_Sub028] (puzzle: Sensor v3, turn-off variant 2) | – | – | – | 39.7 nM | 53.2 nM | 48.7 nM |
| ACAAGCAGAGAGUAAAUGGACAUGAGGAUCACCCAUGUGAGUCCAAGGAGAUAAGAUAUAUUAUUGGCUCGUCUUAU [AK-miRNA-r3-20] (Eterna round: R97, puzzle: Sensor, turn-off variant 1) | 75.2 nM | – | 104 nM | – | – | – |
| ACAAGCAGAGAGUAAAUGGACAUGAGGAUCACCCAUGUGAGUCCAAGGAGAUAAGAUAUUAAAAAGGCUCGUCUUAU [AK-miRNA-r3-19] (Eterna round: R97, puzzle: Sensor, turn-off variant 1) | 112 nM | – | 98.3 nM | – | – | – |
| ACAAGCUCUGUGGGUGGUGACAUGAGGAUCACCCAUGUUUUGCUCGUCUUGUCCCGGGCCCGGCGCCCGGGCCCGGG [-40.4, -69.3, A 12%] (Eterna round: R97, puzzle: Sensor, turn-off variant 1) | 625 nM | – | 1340 nM | – | – | – |
| ACAAGCUCUGUGGGUGGUGACAUGAGGAUCACCCAUGUUUUGCUCGUCUUGUCGGCCGGCCGGCGCCCGGCCGGCCG [-39.6, -68.5, A 12%] (Eterna round: R97, puzzle: Sensor, turn-off variant 1) | 498 nM | – | 727 nM | – | – | – |
| ACAAGCUUAAAGGUGAAUAACAUGAGGAUCACCCAUGUUCGUCUUAUAAAAAUAAAAAUAAAAAAUAAAAAAUAAAA [Sensor V2: 62] (Eterna round: R96, puzzle: Sensor v2, turn-off variant) | 25.6 nM | 87.2 nM | 27.9 nM | – | – | – |

| Sequence | apparent KD of MS2 coat protein (input ligand: FMN 200 uM) | apparent KD of MS2 coat protein [1] | apparent KD of MS2 coat protein (input ligand: none) | apparent KD of MS2 coat protein [2] | apparent KD of MS2 coat protein [3] | apparent KD of MS2 coat protein [4] |
| --- | --- | --- | --- | --- | --- | --- |
| ACAAGCUUAAUCUGUAUGAACAUGAGGAUCACCCAUGUAUAAGGGAAUUCUUUUGGGUUUUUUAUUGCUCGUCUUAU [JR_STOV1_Sub021] (Eterna round: R97, puzzle: Sensor, turn-off variant 1) | 317 nM | – | 311 nM | – | – | – |
| ACAAGCUUUUUGCUCGAAGAGUAGAAACGUGAGAGCGAAACAUGAGGAUCACCCAUGUAAAGGCAGUAGGUGAAGAU [JR_SV3TOV2_Sub024] (puzzle: Sensor v3, turn-off variant 2) | – | – | – | 39.8 nM | 57.4 nM | 57.2 nM |
| ACAAGCUUUUUGCUCGGGUACAUGAGGAUCACCCAUGUUUGGGUUUAUUGAGGUUGUGUGGGCGUGCGCUGCAGGUU [JR_SV3TOV1_Sub075] (puzzle: Sensor v3, turn-off variant 1) | – | – | – | 87.7 nM | 243 nM | 118 nM |
| ACAAGCUUUUUGUUCGUCUUAUAAUAUUCAAUAAAGAUAACAUGAGGAUCACCCAUGUAACAAAGACGGACUCAUGU [Sesor Array 16 - Jieux - Sensor v3, turn-off variant 2] (puzzle: Sensor v3, turn-off variant 2) | – | – | – | 16.5 nM | 267 nM | 12.4 nM |
| ACAAGGAUGAAGGAUAUGGAAGAGUGGGAGCCUCCAGAAGGUCGUACAUGAGGAUCACCCAUGUAUUGGGCUUA [Eternabot (L2) Solution 38] (Eterna round: R97, puzzle: Exclusion 6) | 22.5 nM | – | 21 nM | – | – | – |
| ACACACAGAGGAUAUCUUCCGCAUGACAUGAGGAUCACCCAUGUGUGCAUGCCCAAAAGUAGAGAAGGCUGUGUGU [eternacac ex5r4 #3] (Eterna round: R97, puzzle: Exclusion 5) | 27.1 nM | – | 35.6 nM | – | – | – |
| ACAGCGUGAGGAUAUACAUGAGGAUCACCCAUGUAUGGCAGGUUAUCCUGUCGUAAGUGUAGAAGGCACGCUGU [Exclusion 3 - Oddities v.4 ( A small slide from ms2 to fmn)] (puzzle: Exclusion 3) | – | – | – | – | 18.8 nM | – |
| ACAUCACAUGAGGAUCACCCAUGUCAGGAUAUUCAGCGUAGCAUGCUACCUAACAUCAGAAGAAGGGACACGUA [First Design] (Eterna round: R97, puzzle: Exclusion 1) | 64.5 nM | – | 68.2 nM | – | – | – |
| ACAUGAGGAGAAGGAUAUCUUUAGAGGGUUACCAGAGAAGGUCUAACAUGAGGAUCACCCAUGUCAUGAGGGUCUUGAAUGUUG [10th something] (Eterna round: R96, puzzle: Exclusion NG 1) | 145 nM | 151 nM | 140 nM | – | – | – |
| ACAUGAGGAUCACCCAUGUAAACAUAAUGGCUCAUGUAGAGUCAGGAUAUGCGUGGCGAACAAACGCAGAAGGGACAAGACUGG [Deportation 26 - Jieux - Exclusion NG 3] (Eterna round: R96, puzzle: Exclusion NG 3) | 28.1 nM | 30.8 nM | 29.6 nM | – | – | – |
| ACAUGAGGAUCACCCAUGUAAACAUGAUGGCUGAUGUAGAGCUAGGAUAUGAGUGAAUAUCUAUCUCAGAAGGAGCUUGACUGG [Deportation 46 - Jieux - Exclusion NG 3] (Eterna round: R96, puzzle: Exclusion NG 3) | 20 nM | 15.8 nM | 24.9 nM | – | – | – |
| ACAUGAGGAUCACCCAUGUAAACGUAAUGGCUCAUGUAGAGUCAGGAUAUGCGUGGCGAACUCGCGCAGAAGGGACAAGACUGG [Deportation 22 - Jieux - Exclusion NG 3] (Eterna round: R96, puzzle: Exclusion NG 3) | 30.4 nM | 23.7 nM | 28.6 nM | – | – | – |
| ACAUGAGGAUCACCCAUGUAAUGAAGGGUACUAUAUUAAACGUAGGAUAUCGAUGUAAGUUUGUUCGAGAAGGACGAUUGCCUU [JR_ExcNG3_Sub053] (Eterna round: R96, puzzle: Exclusion NG 3) | 28.1 nM | 38.6 nM | 75.8 nM | – | – | – |
| ACAUGAGGAUCACCCAUGUCCGUCUGGUCUGUCUCGGCUGUCGAGGAUAUAGCUCGGUAUCCGCGCUAGAAGGCGGGAGCCGGU [Aenatbe mod 92] (Eterna round: R96, puzzle: Exclusion NG 3) | 30.9 nM | 31.8 nM | 35 nM | – | – | – |
| ACAUGAGGAUCACCCAUGUCUGGCUGGUCCGUCUCGGCUGUCGAGGAUAUAGCUCGGUGUCCGCGCUAGAAGGCGGGAGCUGGU [Aenatbe mod 82] (Eterna round: R96, puzzle: Exclusion NG 3) | 631 nM | 78 nM | 143 nM | – | – | – |
